Sequences and labels used below:
B1: L-PpTA (Pseudomonas putida KT2440) (protein)
chain: MTDKSQQFASDNYSGICPEAWVAMEKANRGHDRAYGDDQWTERASEYFRNLFETDCEVFFAFNGTAANSLALASLCQSYHSVICSETAHVETDECGAPEFFSNGSKLLTAASVNGKLTPQSIREVALKRQDIHYPKPRVVTITQATEVGTVYRPDELKAISATCKELGLNLHMDGARFTNACAFLGCSPAELTWKAGVDVLCFGGTKNGMAVGEAILFFNRQLAEDFDYRCKQAGQLASKMRFLSAPWVGLLEDGAWLRHGNHANHCAQLLASLVSDLPGVELMFPVEANGVFLQMPEHAIEALRGKGWRFYTFIGSGGARFMCSWDTEEARVRELAADIRTIIGG
notes: E. coli BL21(DE3); HisTrap, Resource Q, Superdex 200

This passage reports Km, kcat and kcat/Km results from publication PMC9922994, “Comprehensive screening strategy coupled with structure-guided engineering of L-threonine aldolase from Pseudomonas putida for enhanced catalytic efficiency towards L-threo-4-methylsulfonylphenylserine” (Frontiers in Bioengineering and Biotechnology, 2023).

In general, Km refers to the substrate concentration at which the rate is half of its maximum. The kcat is the maximal rate divided by the concentration of active sites. As usually defined, the kcat/Km is the second-order rate constant that governs catalysis at low substrate concentration.

For one data set, the system named is T1, NCC(=O)O.
T1 construct: E. coli BL21(DE3); HisTrap, Resource Q, Superdex 200
The experiment in a line: purified protein. The data set is classed as biochemical, Pseudomonas putida. The conditions noted are these: glycine varied 2.5-50 mM, co-substrate 4-methylsulfonylbenzaldehyde, PLP, HEPES-NaOH pH 8.0, 30 °C.
“L-PpTA (Pseudomonas putida KT2440; Y312R)”: the Michaelis-Menten constant (Km) is given as 20.1 mM, the kcat was 12.2 s⁻¹ and the specificity constant (kcat/Km) is 610 M⁻¹ s⁻¹.

In the case of “L-PpTA (Pseudomonas putida KT2440; Y13C)”, the Km worked out at 24.7 mM, the kcat came out at 13.9 s⁻¹ and the specificity constant (kcat/Km) was determined as 560 M⁻¹ s⁻¹.

As to “L-PpTA (Pseudomonas putida KT2440; H133W)”, the Km is 12.9 mM, the kcat is 12.3 s⁻¹ and the kcat/Km is 950 M⁻¹ s⁻¹.

Consider “L-PpTA (Pseudomonas putida KT2440; H133Y)”, for which the Km worked out at 22.6 mM, the kcat came out at 12.5 s⁻¹ and the catalytic efficiency (kcat/Km) came to 550 M⁻¹ s⁻¹.

As for “L-PpTA (Pseudomonas putida KT2440; H133N)”, the Km was 12.8 mM, the catalytic constant (kcat) turned out to be 12.7 s⁻¹ and the kcat/Km turned out to be 990 M⁻¹ s⁻¹.

Take L-PpTA (Pseudomonas putida KT2440; A9V): the Michaelis-Menten constant (Km) worked out at 13.8 mM, the kcat is 7.2 s⁻¹ and the catalytic efficiency (kcat/Km) was 520 M⁻¹ s⁻¹.

For the molecule “L-PpTA (Pseudomonas putida KT2440; Y312E)”, the Michaelis constant (Km) worked out at 25.3 mM, the kcat was found to be 15.3 s⁻¹ and the specificity constant (kcat/Km) was 600 M⁻¹ s⁻¹.

In the case of L-PpTA (Pseudomonas putida KT2440; A9L), the Km is listed as 14.6 mM, the catalytic constant (kcat) worked out at 7.7 s⁻¹ and the catalytic efficiency (kcat/Km) is 530 M⁻¹ s⁻¹.

Take “L-PpTA (Pseudomonas putida KT2440; Y13K)”: the Michaelis-Menten constant (Km) is 19.6 mM, the kcat stood at 10.4 s⁻¹ and the catalytic efficiency (kcat/Km) stood at 530 M⁻¹ s⁻¹.

For the molecule “L-PpTA (Pseudomonas putida KT2440; E147D)”, the Km worked out at 15.1 mM, the kcat worked out at 6.5 s⁻¹ and the kcat/Km amounted to 430 M⁻¹ s⁻¹.

Substrate in another data set: NCC(=O)O
The data set is described as follows: purified protein. The class given is biochemical, Pseudomonas putida. Particulars: glycine varied 2.5-50 mM, co-substrate 4-methylsulfonylbenzaldehyde, PLP, HEPES-NaOH pH 8.0, 30 °C.
As for B1, the Michaelis constant (Km) is 17.4 mM, the turnover number (kcat) came out at 7.1 s⁻¹ and the catalytic efficiency (kcat/Km) amounted to 410 M⁻¹ s⁻¹.
